Literature values in publication PMC11394293.
pKd: −log10 of the molar value.

Biological target: s-Klotho KL1/KL2 (Homo sapiens) (UniProt Q9UEF7)
UniProt Q9UEF7, sequence (Q9UEF7 34-981): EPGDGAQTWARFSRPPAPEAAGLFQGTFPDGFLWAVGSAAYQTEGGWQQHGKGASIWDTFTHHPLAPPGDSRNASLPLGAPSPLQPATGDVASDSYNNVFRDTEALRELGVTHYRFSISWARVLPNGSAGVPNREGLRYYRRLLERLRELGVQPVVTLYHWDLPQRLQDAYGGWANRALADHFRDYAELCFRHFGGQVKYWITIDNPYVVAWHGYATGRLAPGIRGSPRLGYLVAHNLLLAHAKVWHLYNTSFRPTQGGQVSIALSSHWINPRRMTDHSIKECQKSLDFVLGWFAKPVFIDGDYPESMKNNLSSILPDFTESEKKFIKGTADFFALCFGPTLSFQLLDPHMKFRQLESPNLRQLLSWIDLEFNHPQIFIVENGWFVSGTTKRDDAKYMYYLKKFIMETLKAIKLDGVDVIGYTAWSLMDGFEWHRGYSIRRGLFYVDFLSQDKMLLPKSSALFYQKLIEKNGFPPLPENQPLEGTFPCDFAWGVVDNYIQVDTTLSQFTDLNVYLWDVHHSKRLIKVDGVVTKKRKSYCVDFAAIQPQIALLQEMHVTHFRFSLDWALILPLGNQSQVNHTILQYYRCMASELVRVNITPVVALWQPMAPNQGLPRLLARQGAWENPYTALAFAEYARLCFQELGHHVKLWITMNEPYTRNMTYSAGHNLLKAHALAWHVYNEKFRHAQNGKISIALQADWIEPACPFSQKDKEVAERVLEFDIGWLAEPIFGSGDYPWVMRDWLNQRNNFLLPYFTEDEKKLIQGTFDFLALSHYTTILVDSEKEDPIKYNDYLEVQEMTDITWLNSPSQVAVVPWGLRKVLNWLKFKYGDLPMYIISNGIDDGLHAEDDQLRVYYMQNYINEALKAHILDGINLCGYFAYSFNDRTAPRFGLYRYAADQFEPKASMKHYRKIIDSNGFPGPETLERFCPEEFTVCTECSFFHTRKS

pKd: 7.85
Substance: FGF23 (from UniProt Q9GZV9)
